Assay results as given in PMC6187371.

Assays:
duligotuzumab meFab = test: single molecule localization microscopy
duligotuzumab memAb = test: single molecule localization microscopy

Substance: meditope-Alexa Fluor 647 (peptide)
- stoichiometry N (duligotuzumab meFab): 1
- stoichiometry N (duligotuzumab memAb): 2
